From patent publication US20070178531A1 (BIOCHECK, published 2007)

Key:
Human Id1: Histidine = target: T1, Human Id1: Histidine (human, UniProt P41134 1-155, limits assumed); assay: ELISA on coated wells, summary
T1 construct: Fusion protein made in E. coli from vector pGW07; also called h-Id1: his; not shown: His tag
T1 sequence (looked up): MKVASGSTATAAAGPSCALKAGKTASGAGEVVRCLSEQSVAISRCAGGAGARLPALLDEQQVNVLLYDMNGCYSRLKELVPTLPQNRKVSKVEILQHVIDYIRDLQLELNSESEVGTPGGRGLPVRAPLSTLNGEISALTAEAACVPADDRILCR

Mouse Id2: Histidine = target: T2, Mouse Id2: Histidine (mouse, UniProt P41136 1-134, limits assumed); assay: ELISA on coated wells, summary
T2 construct: Fusion protein made in E. coli from vector pGW07; also called m-Id2: His; not shown: His tag
T2 sequence (looked up): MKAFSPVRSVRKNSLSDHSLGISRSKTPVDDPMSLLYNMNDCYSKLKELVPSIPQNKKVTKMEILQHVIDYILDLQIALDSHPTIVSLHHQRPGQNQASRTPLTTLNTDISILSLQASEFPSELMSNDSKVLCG

Human Id2: Histidine [1] = target: T3, Human Id2: Histidine (human, UniProt Q02363 1-134, limits assumed); assay: ELISA on coated wells, summary
T3 construct: Fusion protein made in E. coli from vector pGW07; also called h-Id2: His; not shown: His tag
T3 sequence (looked up): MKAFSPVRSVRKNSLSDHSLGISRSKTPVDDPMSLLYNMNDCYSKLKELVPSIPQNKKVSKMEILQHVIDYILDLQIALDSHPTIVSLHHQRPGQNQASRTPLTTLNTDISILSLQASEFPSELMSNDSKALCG

Mouse Id4: Histidine = target: T4, Mouse Id4: Histidine (mouse, UniProt P41139 1-161, limits assumed); assay: ELISA on coated wells, summary
T4 construct: Fusion protein made in E. coli from vector pGW07; also called m-Id4: His; not shown: His tag
T4 sequence (looked up): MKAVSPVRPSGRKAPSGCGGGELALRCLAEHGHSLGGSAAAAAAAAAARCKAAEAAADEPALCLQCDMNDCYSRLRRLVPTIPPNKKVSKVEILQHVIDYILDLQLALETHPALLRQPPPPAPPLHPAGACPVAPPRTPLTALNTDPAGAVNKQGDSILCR

Human Id4: Histidine = target: T5, Human Id4: Histidine (human, UniProt P47928 1-161, limits assumed); assay: ELISA on coated wells, summary
T5 construct: Fusion protein made in E. coli from vector pGW07; also called h-Id4: His; not shown: His tag
T5 sequence (looked up): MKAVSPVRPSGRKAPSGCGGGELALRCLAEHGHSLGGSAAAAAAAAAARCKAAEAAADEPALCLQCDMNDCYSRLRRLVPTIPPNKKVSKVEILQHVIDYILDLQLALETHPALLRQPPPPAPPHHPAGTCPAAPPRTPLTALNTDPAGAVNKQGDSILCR

Mouse Id1: Histidine = target: T6, Mouse Id1: Histidine (mouse, UniProt P20067-2 1-148, limits assumed); assay: ELISA on coated wells, summary
T6 construct: Fusion protein made in E. coli from vector pGW07; also called m-Id1-His; not shown: His tag
T6 sequence (looked up): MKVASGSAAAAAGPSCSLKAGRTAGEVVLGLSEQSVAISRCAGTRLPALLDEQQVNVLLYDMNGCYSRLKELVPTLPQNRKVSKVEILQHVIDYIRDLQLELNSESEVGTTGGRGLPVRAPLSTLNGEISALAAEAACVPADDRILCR

human Id3 protein = target: T7, human Id3 protein (human, UniProt Q02535 1-119 at identity 1.00)); assay: SPR (BIACORE 2000), antibody immobilized on CM5, Id3 as analyte, 1:1 Langmuir
T7 chain: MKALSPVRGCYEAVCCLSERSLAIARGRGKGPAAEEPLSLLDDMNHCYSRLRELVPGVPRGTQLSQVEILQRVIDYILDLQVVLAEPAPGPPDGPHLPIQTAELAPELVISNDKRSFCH
Procedure: (§1) Antibodies were immobilized on CM5 sensor chips. All SPR (surface plasmon resonance) assays were carried out in a BIACORE 2000 instrument. A mouse monoclonal antibody was used as reference labeled at the 2nd channel (Fc2) of the chip. Rabbit monoclonal anti-human Id3 (BCH-4/#3-3) or Rabbit monoclonal anti-mouse/human Id3 (BCH-4/#6-1, #16-1 and #17-3) was immobilized on the 4th (Fc4) channel. Final conjugation of antibodies on chip surface was 1878 RU for BCH-4#3-3, BCH-4/#6-1, BCH-4/#16-1, or BCH-3/#17-3. Mouse Id-3 and human Id-3 were applied as mobile analytes. The binding assays were carried out in HBS-P buffer (10 mM HEPES, pH 7.4, containing 150 mM sodium chloride, 0.005% surfactant P-20 detergent and 0.12% glycerol). Kinetics were determined with 8 different analyte concentrations ranging from 3.4 nM to 573 nM. For analyses, 125 μl of analyte were injected (Kinject protocol) at 30 μl/min and the dissociation lasted for 240 seconds at the same flow rate. The surface was regenerated by washing with 50 μl solution of 100 mM glycine and 100 mM of HCl, pH 1.81, at 60 μl/min and the extra cleaning protocol was followed. The kinetic analyses of sensograms were based on the Langmuir (1:1) binding model. Both association rate constant and dissociation rate constants for the interaction of mouse Id-3 and human Id-3 with the immobilized antibodies were determined from the analysis of sensograms using the Biaevaluation software, version 3.0. All binding curves were corrected for background and bulk refractive index contribution by subtraction of the reference flow cells. Models were fitted globally across the data sets. All experiments and analyses were duplicated.

mouse Id3 protein = target: T8, mouse Id3 protein (mouse, UniProt P41133 1-119); assay: as above
T8 sequence: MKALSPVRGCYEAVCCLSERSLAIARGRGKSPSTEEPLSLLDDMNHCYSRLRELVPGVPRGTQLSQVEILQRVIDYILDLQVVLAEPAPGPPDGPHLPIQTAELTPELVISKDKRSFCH
Procedure: as §1

Human Id2: Histidine [2] = target: T3, Human Id2: Histidine; assay: ELISA, Ab 0.250 µg/ml
Mouse Id3: Histidine = target: T9, Mouse Id3: Histidine (mouse, UniProt P41133 1-119); assay: ELISA, Ab 0.250 µg/ml
T9 construct: Fusion protein made in E. coli from vector pGW07; also called m-Id3: His; Mouse Id3 (coated wells); not shown: His tag
T9 sequence: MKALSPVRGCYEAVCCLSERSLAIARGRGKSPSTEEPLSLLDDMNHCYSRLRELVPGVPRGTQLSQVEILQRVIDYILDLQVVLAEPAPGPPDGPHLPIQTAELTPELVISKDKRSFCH

Human Id3: Histidine = target: T10, Human Id3: Histidine (human, UniProt Q02535 1-119 at identity 1.00)); assay: ELISA, Ab 0.250 µg/ml
T10 construct: Fusion protein made in E. coli from vector pGW07; also called h-Id3: His; Human Id3 (coated wells); not shown: His tag
T10 chain: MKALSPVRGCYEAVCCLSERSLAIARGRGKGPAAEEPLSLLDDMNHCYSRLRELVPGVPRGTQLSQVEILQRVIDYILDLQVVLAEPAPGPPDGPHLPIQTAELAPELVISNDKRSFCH

B1: rabbit monoclonal anti-human Id3, clone #BCH-4/#3-3 (antibody, V domains shown)
VH: QSVEESGGRLVTPGTPLTLTCTVSGIDLSSYAMSWVRQAPGKGLEWIGVIFPSNNVYYASWAKGRFTISKTSTTVDLKITSPTTEDTATYFCASMGAFDSWGPGTLVTVSS
VL: QVLTQTPSPVSAAVGGTVTINCQASQSIYNDNDLAWFQQKPGQPPKLLIYDASTLTSGVPSRFKGSGSGTQFTLTISDLDCDDAATYYCAARYSGNIYGFGGGTEVVVK
notes: Rabbit IgG from a rabbit hybridoma; also called h Id3 MoAb 3-3
- Cross-reactivity (%) (Human Id1: Histidine): < 1%
- Cross-reactivity (%) (Mouse Id2: Histidine): < 1%
- Cross-reactivity (%) (Human Id2: Histidine [1]): < 1%
- Cross-reactivity (%) (Mouse Id4: Histidine): < 1%
- Cross-reactivity (%) (Human Id4: Histidine): < 1%
- Cross-reactivity (%) (Mouse Id1: Histidine): < 1%

B2: rabbit monoclonal anti-mouse/human Id3, clone #BCH-4/#16-1 (antibody, V domains shown)
VH: QSVEESGGRLVTPGTPLTLTCTASGFSLSSYYIHWVRQAPGKALEWIGYISDGGTTYYASWAKGRFTISKTSSTTVDLKMTSLTTEDTATYFCARQGFNIWGPGTLVTVSL
VL: AVLTQTPSPVSAAVGGTVTISCQSSQSVYNNNWLSWFQQKSGQPPKLLIYETSKLESGVPSRFKGSGSGTQFTLTIIDVQCDDAATYYCLGGYWTTSDNNIFGGGTEVVVK
notes: Rabbit IgG from a rabbit hybridoma; also called m/h Id3 MoAb 16-1
- Ka (human Id3 protein): 1.89e+11 M⁻¹
- Ka (mouse Id3 protein): 2.42e+09 M⁻¹

B3: rabbit monoclonal anti-mouse/human Id3, clone #BCH-4/#6-1 (antibody, V domains shown)
VH: QSVEESGGRLVTPGTPLTLTCTASGFSLSNVYIHWVRQAPGKGLEWIGYISDGDTARYATWAKGRFTISKTSSTTVNLKMTSLTTEDTATYFCARQGFNIWGPGTLVTVSL
VL: AVLTQTPSPVSAAVGGTVSISCQSSQSVWNNNWLSWFQQKPGQPPKLLIYETSKLESGVPSRFKGSGSGTQFTLTISDVQCDDAATYYCLGGYWTTSDNNVFGGGTEVVVK
notes: Rabbit IgG from a rabbit hybridoma; also called m/h Id3 MoAb 6-1
- A450 (Human Id2: Histidine [2]): 0.071 A450
- A450 (Mouse Id3: Histidine): 3.13 A450
- A450 (Human Id3: Histidine): 2.74 A450
- Ka (human Id3 protein): 4.13e+11 M⁻¹
- Ka (mouse Id3 protein): 5.26e+08 M⁻¹

B4: rabbit monoclonal anti-mouse/human Id3, clone #BCH-4/#17-3 (antibody, V domains shown)
VH: QSVEESGGRLVTPGTPLTLTCTASGFSLSNVYIHWVRQAPGKGLEWIGYISDGDTARYATWAKGRFTISKTSSTTVNLKMTSLTTEDTATYFCARQGFNIWGPGTLVTVSL
VL: AVLTQTPSPVSAAVGGTVSISCQSSQSVWNNNWLSWFQQKPGQPPKLLIYETSKLESGVPSRFKGSGSGTQFTLTISDVQCDDAATYYCLGGYWTTSDNNVFGGGTEVVVK
notes: Rabbit IgG from a rabbit hybridoma; also called m/h Id3 MoAb 17-3; BCH-3/#17-3
- Ka (human Id3 protein): 7.35e+10 M⁻¹
- Ka (mouse Id3 protein): 3.32e+11 M⁻¹
